# According to patent US20200407424A1 (FRAUNHOFER GESELLSCHAFT ZUR F RDERUNG DER ANGEWANDTEN …, published 2020):
# Square brackets hold non-standard residues; d marks the D form. Ends that are not written are not given here. Cit = NC(=O)NCCC[C@H](N)C(=O)O
# Biological target: T1, recombinant MHC class II protein of the HLA DRB1 0101 genotype (human)
# T1 construct: construct not described
# Experiment: in vitro binding assay
row,Binder,binding result
1,KSFIKDYPVVSIEDP [a-enolase peptide ref no 57],binds
2,KEGLELLKTAIGKAG [a-enolase peptide ref no 45],binds
3,GAPCRSERLAKYNQL [a-enolase peptide ref no 80],binds
4,VEHINKTIAPALVSK [a-enolase peptide ref no 14],binds
5,KTIAPALVSKKLNVT [a-enolase peptide ref no 15],binds
6,SERLAKYNQLLRIEE [a-enolase peptide ref no 81],binds
7,RYMGKGVSKAVEHIN [a-enolase peptide ref no 12],binds
8,GVSKAVEHINKTIAP [a-enolase peptide ref no 13],binds
9,KGVPLYRHIADLAGN [a-enolase peptide ref no 26],binds
10,MSILKIHAREIFDSR [a-enolase peptide ref no 1],binds
11,AEVYHNLKNVIKEKY [a-enolase peptide ref no 38],binds
12,ANFREAMRIGAEVYH [a-enolase peptide ref no 36],binds

# Next, values leading:
row,binding result,Binder
1,no binding,LLKVNQIGSVTESLQ [a-enolase peptide ref no 69]
2,no binding,KGVPLY[Cit]HIADLAGN [citrullinated a-enolase peptide ref no 299]

# Biological target: T2, recombinant MHC class II protein of the HLA DRB1 0401 genotype (human)
# T2 construct: construct not described; also called HLA-DR0401
# Experiment: in vitro binding assay
row,Binder,binding result
1,KSFIKDYPVVSIEDP [a-enolase peptide ref no 57],binds
2,KEGLELLKTAIGKAG [a-enolase peptide ref no 45],binds
3,GAPCRSERLAKYNQL [a-enolase peptide ref no 80],no binding
4,VEHINKTIAPALVSK [a-enolase peptide ref no 14],no binding
5,KTIAPALVSKKLNVT [a-enolase peptide ref no 15],no binding
6,SERLAKYNQLLRIEE [a-enolase peptide ref no 81],no binding
7,RYMGKGVSKAVEHIN [a-enolase peptide ref no 12],no binding
8,GVSKAVEHINKTIAP [a-enolase peptide ref no 13],no binding
9,KGVPLYRHIADLAGN [a-enolase peptide ref no 26],binds
10,MSILKIHAREIFDSR [a-enolase peptide ref no 1],no binding
11,AEVYHNLKNVIKEKY [a-enolase peptide ref no 38],binds
12,ANFREAMRIGAEVYH [a-enolase peptide ref no 36],no binding

# Next, values leading:
row,binding result,Binder
1,no binding,LLKVNQIGSVTESLQ [a-enolase peptide ref no 69]
2,binds,KGVPLY[Cit]HIADLAGN [citrullinated a-enolase peptide ref no 299]

# Biological target: T3, recombinant MHC class II protein of the HLA DRB1 0404 genotype (human)
# T3 construct: construct not described
# Experiment: in vitro binding assay
row,Binder,binding result
1,KSFIKDYPVVSIEDP [a-enolase peptide ref no 57],binds
2,KEGLELLKTAIGKAG [a-enolase peptide ref no 45],binds
3,GAPCRSERLAKYNQL [a-enolase peptide ref no 80],no binding
4,VEHINKTIAPALVSK [a-enolase peptide ref no 14],binds
5,KTIAPALVSKKLNVT [a-enolase peptide ref no 15],binds
6,SERLAKYNQLLRIEE [a-enolase peptide ref no 81],binds
7,RYMGKGVSKAVEHIN [a-enolase peptide ref no 12],no binding
8,GVSKAVEHINKTIAP [a-enolase peptide ref no 13],binds
9,KGVPLYRHIADLAGN [a-enolase peptide ref no 26],binds
10,MSILKIHAREIFDSR [a-enolase peptide ref no 1],binds
11,AEVYHNLKNVIKEKY [a-enolase peptide ref no 38],no binding
12,ANFREAMRIGAEVYH [a-enolase peptide ref no 36],no binding

# Results, then the binder that gave them:
row,binding result,Binder
1,no binding,LLKVNQIGSVTESLQ [a-enolase peptide ref no 69]
2,no binding,KGVPLY[Cit]HIADLAGN [citrullinated a-enolase peptide ref no 299]

# Biological target: T4, recombinant MHC class II protein of the HLA DRB1 0405 genotype (human)
# T4 construct: construct not described
# Experiment: in vitro binding assay
row,Binder,binding result
1,KSFIKDYPVVSIEDP [a-enolase peptide ref no 57],binds
2,KEGLELLKTAIGKAG [a-enolase peptide ref no 45],binds
3,GAPCRSERLAKYNQL [a-enolase peptide ref no 80],binds
4,VEHINKTIAPALVSK [a-enolase peptide ref no 14],no binding
5,KTIAPALVSKKLNVT [a-enolase peptide ref no 15],no binding
6,SERLAKYNQLLRIEE [a-enolase peptide ref no 81],no binding
7,RYMGKGVSKAVEHIN [a-enolase peptide ref no 12],binds
8,GVSKAVEHINKTIAP [a-enolase peptide ref no 13],no binding
9,KGVPLYRHIADLAGN [a-enolase peptide ref no 26],binds
10,MSILKIHAREIFDSR [a-enolase peptide ref no 1],binds
11,AEVYHNLKNVIKEKY [a-enolase peptide ref no 38],binds
12,ANFREAMRIGAEVYH [a-enolase peptide ref no 36],binds

# The next lines start with the values.
row,binding result,Binder
1,binds,LLKVNQIGSVTESLQ [a-enolase peptide ref no 69]
2,binds,KGVPLY[Cit]HIADLAGN [citrullinated a-enolase peptide ref no 299]

# Biological target: T5, recombinant MHC class II protein of the HLA DRB1 0408 genotype (human)
# T5 construct: construct not described
# Experiment: in vitro binding assay
row,Binder,binding result
1,KSFIKDYPVVSIEDP [a-enolase peptide ref no 57],binds
2,KEGLELLKTAIGKAG [a-enolase peptide ref no 45],binds
3,GAPCRSERLAKYNQL [a-enolase peptide ref no 80],binds
4,VEHINKTIAPALVSK [a-enolase peptide ref no 14],binds
5,KTIAPALVSKKLNVT [a-enolase peptide ref no 15],binds
6,SERLAKYNQLLRIEE [a-enolase peptide ref no 81],no binding
7,RYMGKGVSKAVEHIN [a-enolase peptide ref no 12],binds
8,GVSKAVEHINKTIAP [a-enolase peptide ref no 13],no binding
9,KGVPLYRHIADLAGN [a-enolase peptide ref no 26],binds
10,MSILKIHAREIFDSR [a-enolase peptide ref no 1],no binding
11,AEVYHNLKNVIKEKY [a-enolase peptide ref no 38],binds
12,ANFREAMRIGAEVYH [a-enolase peptide ref no 36],no binding

# The next lines start with the values.
row,binding result,Binder
1,no binding,LLKVNQIGSVTESLQ [a-enolase peptide ref no 69]
2,binds,KGVPLY[Cit]HIADLAGN [citrullinated a-enolase peptide ref no 299]

# Biological target: T6, recombinant MHC class II protein of the HLA DRB1 1001 genotype (human)
# T6 construct: construct not described
# Experiment: in vitro binding assay
row,Binder,binding result
1,KSFIKDYPVVSIEDP [a-enolase peptide ref no 57],binds
2,KEGLELLKTAIGKAG [a-enolase peptide ref no 45],no binding
3,GAPCRSERLAKYNQL [a-enolase peptide ref no 80],no binding
4,VEHINKTIAPALVSK [a-enolase peptide ref no 14],no binding
5,KTIAPALVSKKLNVT [a-enolase peptide ref no 15],no binding
6,SERLAKYNQLLRIEE [a-enolase peptide ref no 81],no binding
7,RYMGKGVSKAVEHIN [a-enolase peptide ref no 12],binds
8,GVSKAVEHINKTIAP [a-enolase peptide ref no 13],no binding
9,KGVPLYRHIADLAGN [a-enolase peptide ref no 26],no binding
10,MSILKIHAREIFDSR [a-enolase peptide ref no 1],binds
11,AEVYHNLKNVIKEKY [a-enolase peptide ref no 38],no binding
12,ANFREAMRIGAEVYH [a-enolase peptide ref no 36],no binding

# Second part, the binder after the results:
row,binding result,Binder
1,no binding,LLKVNQIGSVTESLQ [a-enolase peptide ref no 69]
2,no binding,KGVPLY[Cit]HIADLAGN [citrullinated a-enolase peptide ref no 299]

# Biological target: T2, recombinant MHC class II protein of the …
# Experiment: in vitro binding assay
# Remark: another data set of the same source
row,binding result,Binder
1,binds,PGLQGMPGE[Cit]GAAGI [citrullinated type II collagen peptide ref no 386]
2,binds,GIVGLPGQ[Cit]GE[Cit]GFP [citrullinated type II collagen peptide ref no 411]
3,no binding,LAGQRGIVGLPGQRG [type II collagen peptide ref no 241]

# Biological target: T3, recombinant MHC class II protein of the …
# Experiment: in vitro binding assay
# Remark: another data set of the same source
row,binding result,Binder
1,binds,PQGARGFPGTPGLPG [type II collagen peptide ref no 100]
2,binds,VMGFPGPKGANGEPG [type II collagen peptide ref no 166]
3,binds,GDRGETGAVGAPGAP [type II collagen peptide ref no 257]
4,binds,PGLQGMPGE[Cit]GAAGI [citrullinated type II collagen peptide ref no 386]
5,binds,GIVGLPGQ[Cit]GE[Cit]GFP [citrullinated type II collagen peptide ref no 411]
6,binds,GPPGATGFPGAAGRV [type II collagen peptide ref no 224]
7,binds,PGLQGMPGERGAAGI [type II collagen peptide ref no 195]
8,binds,LAGQRGIVGLPGQRG [type II collagen peptide ref no 241]

# Biological target: T4, recombinant MHC class II protein of the …
# Experiment: in vitro binding assay
# Remark: another data set of the same source
row,binding result,Binder
1,binds,GIVGLPGQ[Cit]GE[Cit]GFP [citrullinated type II collagen peptide ref no 411]
2,binds,PSGFQGLPGPPGPPG [type II collagen peptide ref no 178]
3,binds,GHRGFTGLQGLPGPP [type II collagen peptide ref no 272]
4,binds,LAGQRGIVGLPGQRG [type II collagen peptide ref no 241]

# Biological target: T1, recombinant MHC class II protein of the …
# Experiment: in vitro binding assay
# Remark: another data set of the same source
row,binding result,Binder
1,binds,YAT[Cit]SSAV[Cit]L[Cit]SSVP [citrullinated vimentin peptide ref no 105]
2,binds,MSTRSVSSSSYRRMF [vimentin peptide ref no 1]
3,no binding,THSK[Cit]TLLIKTVET[Cit] [citrullinated vimentin peptide ref no 166]
4,no binding,DNASLA[Cit]LDLE[Cit]KVE [citrullinated vimentin peptide ref no 133]
5,binds,FKNT[Cit]TNEKVELQEL [citrullinated vimentin peptide ref no 111]
6,binds,SAV[Cit]L[Cit]SSVPGV[Cit]LL [citrullinated vimentin peptide ref no 106]
7,no binding,GVXLLQDSVDFSLAD (citrulline (Xaa) at 3) [citrullinated vimentin peptide ref no 108]
8,no binding,RKLLEGEESRISLPL [vimentin peptide ref no 81]
9,binds,YRRMFGGPGTASRPS [vimentin peptide ref no 3]
10,no binding,VDQLTNDKARVEVER [vimentin peptide ref no 33]
11,binds,SPGGVYAT[Cit]SSAV[Cit]L [citrullinated vimentin peptide ref no 104]

# Biological target: T2, recombinant MHC class II protein of the …
# Experiment: in vitro binding assay
# Remark: another data set of the same source
row,binding result,Binder
1,binds,YAT[Cit]SSAV[Cit]L[Cit]SSVP [citrullinated vimentin peptide ref no 105]
2,binds,MSTRSVSSSSYRRMF [vimentin peptide ref no 1]
3,no binding,THSK[Cit]TLLIKTVET[Cit] [citrullinated vimentin peptide ref no 166]
4,binds,DNASLA[Cit]LDLE[Cit]KVE [citrullinated vimentin peptide ref no 133]
5,binds,FKNT[Cit]TNEKVELQEL [citrullinated vimentin peptide ref no 111]
6,binds,SAV[Cit]L[Cit]SSVPGV[Cit]LL [citrullinated vimentin peptide ref no 106]
7,binds,GVXLLQDSVDFSLAD (citrulline (Xaa) at 3) [citrullinated vimentin peptide ref no 108]
8,binds,RKLLEGEESRISLPL [vimentin peptide ref no 81]
9,binds,YRRMFGGPGTASRPS [vimentin peptide ref no 3]
10,binds,VDQLTNDKARVEVER [vimentin peptide ref no 33]
11,binds,SPGGVYAT[Cit]SSAV[Cit]L [citrullinated vimentin peptide ref no 104]

# Biological target: T3, recombinant MHC class II protein of the …
# Experiment: in vitro binding assay
# Remark: another data set of the same source
row,binding result,Binder
1,no binding,YAT[Cit]SSAV[Cit]L[Cit]SSVP [citrullinated vimentin peptide ref no 105]
2,binds,MSTRSVSSSSYRRMF [vimentin peptide ref no 1]
3,binds,THSK[Cit]TLLIKTVET[Cit] [citrullinated vimentin peptide ref no 166]
4,no binding,DNASLA[Cit]LDLE[Cit]KVE [citrullinated vimentin peptide ref no 133]
5,no binding,FKNT[Cit]TNEKVELQEL [citrullinated vimentin peptide ref no 111]
6,binds,SAV[Cit]L[Cit]SSVPGV[Cit]LL [citrullinated vimentin peptide ref no 106]
7,no binding,GVXLLQDSVDFSLAD (citrulline (Xaa) at 3) [citrullinated vimentin peptide ref no 108]
8,no binding,RKLLEGEESRISLPL [vimentin peptide ref no 81]
9,binds,YRRMFGGPGTASRPS [vimentin peptide ref no 3]
10,binds,VDQLTNDKARVEVER [vimentin peptide ref no 33]
11,binds,SPGGVYAT[Cit]SSAV[Cit]L [citrullinated vimentin peptide ref no 104]

# Biological target: T4, recombinant MHC class II protein of the …
# Experiment: in vitro binding assay
# Remark: another data set of the same source
row,binding result,Binder
1,no binding,YAT[Cit]SSAV[Cit]L[Cit]SSVP [citrullinated vimentin peptide ref no 105]
2,no binding,MSTRSVSSSSYRRMF [vimentin peptide ref no 1]
3,no binding,THSK[Cit]TLLIKTVET[Cit] [citrullinated vimentin peptide ref no 166]
4,no binding,DNASLA[Cit]LDLE[Cit]KVE [citrullinated vimentin peptide ref no 133]
5,no binding,FKNT[Cit]TNEKVELQEL [citrullinated vimentin peptide ref no 111]
6,binds,SAV[Cit]L[Cit]SSVPGV[Cit]LL [citrullinated vimentin peptide ref no 106]
7,no binding,GVXLLQDSVDFSLAD (citrulline (Xaa) at 3) [citrullinated vimentin peptide ref no 108]
8,no binding,RKLLEGEESRISLPL [vimentin peptide ref no 81]
9,binds,YRRMFGGPGTASRPS [vimentin peptide ref no 3]
10,no binding,VDQLTNDKARVEVER [vimentin peptide ref no 33]
11,no binding,SPGGVYAT[Cit]SSAV[Cit]L [citrullinated vimentin peptide ref no 104]
